Measured values reported in patent publication US20230212305A1 (published 2023).

T1: human ABCG2 (human, UniProt Q9UNQ0 1-655)
T1 construct: also called hG2; KPG2
T1 sequence: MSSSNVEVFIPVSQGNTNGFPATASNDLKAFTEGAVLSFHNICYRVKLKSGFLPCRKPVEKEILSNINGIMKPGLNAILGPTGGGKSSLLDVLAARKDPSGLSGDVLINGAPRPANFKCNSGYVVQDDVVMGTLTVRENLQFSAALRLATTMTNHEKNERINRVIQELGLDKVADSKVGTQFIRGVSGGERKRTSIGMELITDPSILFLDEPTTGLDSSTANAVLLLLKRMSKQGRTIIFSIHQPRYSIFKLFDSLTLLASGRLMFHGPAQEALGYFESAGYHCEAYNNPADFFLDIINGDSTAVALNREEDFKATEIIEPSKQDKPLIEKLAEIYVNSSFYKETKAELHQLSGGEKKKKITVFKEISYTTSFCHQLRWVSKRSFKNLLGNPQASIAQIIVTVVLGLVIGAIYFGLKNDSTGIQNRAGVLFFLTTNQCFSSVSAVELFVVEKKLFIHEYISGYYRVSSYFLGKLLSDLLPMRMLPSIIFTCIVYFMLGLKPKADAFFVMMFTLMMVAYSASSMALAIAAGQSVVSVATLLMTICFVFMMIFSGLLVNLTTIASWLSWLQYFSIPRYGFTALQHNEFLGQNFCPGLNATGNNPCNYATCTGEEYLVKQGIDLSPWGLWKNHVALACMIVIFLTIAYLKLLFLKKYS

T2: cynomolgus ABCG2 (Macaca fascicularis) (Macaca fascicularis (cynomolgus), UniProt Q5MB13 1-654 (rhesus entry))
T2 construct: also called cABCG2
T2 sequence: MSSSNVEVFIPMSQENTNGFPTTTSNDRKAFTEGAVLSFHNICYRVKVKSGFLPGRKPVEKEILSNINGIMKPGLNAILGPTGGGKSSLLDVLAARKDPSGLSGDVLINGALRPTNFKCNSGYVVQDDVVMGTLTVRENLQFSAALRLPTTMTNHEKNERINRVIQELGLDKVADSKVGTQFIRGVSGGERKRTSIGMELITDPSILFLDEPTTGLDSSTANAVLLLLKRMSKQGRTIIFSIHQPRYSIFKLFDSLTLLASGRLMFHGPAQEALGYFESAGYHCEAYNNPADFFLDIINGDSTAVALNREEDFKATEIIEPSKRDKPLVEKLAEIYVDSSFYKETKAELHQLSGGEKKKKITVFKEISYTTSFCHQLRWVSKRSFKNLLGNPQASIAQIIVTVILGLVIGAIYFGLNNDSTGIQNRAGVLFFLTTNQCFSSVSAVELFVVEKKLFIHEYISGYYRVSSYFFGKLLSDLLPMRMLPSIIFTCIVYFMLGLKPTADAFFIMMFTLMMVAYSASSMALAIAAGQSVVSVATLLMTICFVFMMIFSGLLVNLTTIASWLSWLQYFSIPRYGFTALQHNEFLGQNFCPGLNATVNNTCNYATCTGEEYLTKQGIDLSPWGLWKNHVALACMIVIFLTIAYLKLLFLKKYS

B1: anti-ABCG2 antibody 5D3 (antibody, V domains shown)
VH: QVQLQESGPGLVKPSQSLSLTCTVTGFSITSDYAWNWIRQFPGKKLEWMGYINFDGGTTYNPSLRGRISITRDTSKNQFFLQLRSVTPEDTATYYCATFYGAKGTLDYWGQGTSVTVSS
VL: DIVLTQSPSSFSVSLGDRVTISCKASGYILNRLAWYQQKPGNAPRLLISGATSLETGFPSRFSGTGSGKDYTLSISSLQTEDVGTYYCQQYWSTPWTFGGGTKLEIK
notes: also called clone 5D3
B2: G2.629 rat (antibody, human IgG1, V domains shown)
VH: EVQLVESGGGLVQPGRSLKLSCAASGFIFSRFYMAWVRQAPTKGLEWVAYINTGGGTTYYRDSVKGRFTISRDNAKTTLYLQMDSLRSEDTATYYCTTLAAPWNYVMDAWGQGASVTVSS
VL: DVVMTQSPSLLSASVGDRVTLTCKGSQNINNFLAWYQQKLGEAPKLLTYKTNSLHTGIPSRFSGSGSGTDYTLTISSLHSEDLATYYCYQYNNGYTFGPGTKLELK
notes: Variable regions cloned onto human IgG1 constant heavy chain and human kappa constant light chain
B3: G2.631 rat (antibody, human IgG1, V domains shown)
VH: EVKLLESGGGLVQSGRSLKLSCAASGFIFSRFYMAWVRQAPRKGLEWVAYISNGAGSTYYRESVKGRFIISRDNAKSTLYLQMDSLRSEDTATYYCTTVAAPWNYVMDGWGQGASVTVSS
VL: NIQITQSPSLLSASVGDRVTLSCKGSQNINNYLAWYQQKLGEAPKLLIYKTNSLHTGIPSRFSGSGSGTDYTLTISSLHSEDLATYYCYQYNNGYTFGAGTKLELK
notes: also called G.631
B4: G2.636 rat (antibody, human IgG1, V domains shown)
VH: EVKLVESGGGLVQPGRSLKLSCAASGFTFSRFYMAWVRQAPTKGLEWVAHISHGGDTTYYRDSVKGRFTISRDNAKSTLFLQMDSLRSEDTATYYCTTSAAPWNYVMDGWGLGASVTVSS
VL: DIVMTQSPSLLSASVGDRVTLTCKGSQNINNFLAWYQQKLGEAPKLLIYKTNSLHTGIPSRFSGSGSGTDYTLTISSLHSEDLATYYCYQYNNGYTFGAGTKLELK
notes: as for B2
B5: G2.641 rat (antibody, human IgG1, V domains shown)
VH: EVKLEESGGGLVQPGRSLKLSCAASGFTFSRFYMAWVRQAPTKGLEWVAHISHGGDTTYYRDSVKGRFTISRDNAKSTLFLQMDSLRSEDTATYYCTTSAAPWNYVMDGWGLGASVTVSS
VL: DIQMTQSPSLLSASVGDRVTLTCKGSQNINNFLAWYQQKLGEAPKLLIYKTNSLHTGIPSRFSGSGSGTDYTLTISSLHSEDLATYYCYQYNNGYTFGAGTKLELK
notes: as for B2
B6: G2.642 rat (antibody, human IgG1, V domains shown)
VH: QIQLVQSGAELVKPGASVKLSCKTSGFTFSSNYISWLRQKPRQSLEWIAWIYSGTGGTYYNQKFTGKAQLTIDTSSNTAYMQLSSLTSEDSAIYYCARHVGLRYWYFDVWGAGTSVTVSS
VL: DIVLTQSPASLTVSLGQRATISCRASESVDSNGNSFMHWYQQKPGQSPKVLIYRASNLESGVPARFSGSGSRTDFTLTINPVEADDVATYYCQQSNEDPWTFGGGTKLEIKR
B7: G2.643 mouse (antibody, human IgG1, V domains shown)
VH: VNLVESGPELVKPGTSVKISCKASGYRFTSYYVHWVKQRPGQGLEWIGWIFPGSDNTKYNEKFKGKATLTADTSSSTAYMQLSSLTSEDSAVYFCASIYYGYDGTLYFDYWGQGTSVTVSS
VL: DIVMTQSHTFMSTSVGDRVSVTCKASQNVGNNVAWYQQKPGQSPNALIYSASYRYSGVPDRFTGSGSGTDFTLTISNVQSEDLAEYFCQQYDRYPLTFGGGTKLEIK
notes: Recombinant antibody
B8: G2.173 Humanized 3 (antibody, human IgG1, V domains shown)
VH: EVQLVQSGAEVKKPGASVKVSCKASGFNIKDDYVHWVRQAPGQGLEWIGRIDPASGNTRYAPKFRGRATMTADTSISTAYMELSRLRSDDTAVYYCSPPLWVGGFAYWGQGTLVTVSS
VL: DVVMTQSPLSLPVTLGQPASISCRSSQSLVHSDVNTYLHWYQQRPGQSPRLLIYKVSNRFSGVPDRFSGSGSGTDFTLKISRVEAEDVGVYFCSQTTHVPYTFGGGTKLEIK
B9: G2.247 mouse (antibody, human IgG1, V domains shown)
VH: EVRLQQSGAELVKPGASVKLSCKTSGFTFSNSYISWLKQKPRQSLEWIAWIYAGTGGTNYNQKFTGKAQLTVDTSSSTAYMQLSSLTSEDSAIYYCATYGNFLYAMDNWGQGTSVTVSS
VL: DIVMTQSPASLSASVGETVTITCRASGNIHNYLAWYQQKQGKSPQLLVYNTKTLADGVPSRFSGSGSGTQYSLKINSLQPEDFGSYYCQHFWSTPWTFGGGTKLEIK
notes: as for B2
B10: G2.248 mouse (antibody, human IgG1, V domains shown)
VH: QVQLQQPGAELVKPGASVKLSCKTSGFTFSNSYISWLKQKPRQSLEWIAWIYAGTGGTNYNQKFTGKAQLTVDTSSSTAYMQLSSLTSEDSAIYYCATYGNFLYAMDNWGQGTSVTVSS
VL: DIQMKQSPASLSASVGETVTITCRASGNIHNYLAWYQQKQGKSPQLLVYNTKTLADGVPSRFSGSGSGTQYSLKINSLQPEDFGSYYCQHFWSTPWTFGGGTKLEIK
notes: as for B2
B11: G2.252 mouse (antibody, human IgG1, V domains shown)
VH: EVQLQQSGAELVKPGASVKLSCKTSGFTFSNSYISWLKQKPRQSLEWIAWIYAGTGGTNYNQKFTGKAQLTVDTSSSTAYMQLSSLTSEDSAIYYCATYGNFLYAMDYWGQGTTLTVSS
VL: EIVLTQSPASLSASVGETVTITCRASGNIHNYLAWYQQKQGKSPQLLVYNAKTLADGVPSRFSGSGSGTQYSLKINSLQPEDFGSYYCQHFWSTPWTFGGGTKLEIK
notes: as for B2
B12: G2.255 mouse (antibody, human IgG1, V domains shown)
VH: EVMLVESGGALVKPGGSLKLSCAASGFTFSNNAMSWVRQTPETRLEWVATITGGGSYTYYPDSVKGRFTISRDNARNTLYLQMSSLRSEDTATYYCASPDGNYEGVLAYWGQGTLVTVSA
VL: DIQMNQSPSSLSASLGDRVTISCSASQGISNYLNWYQQKPDGTIKLLIYYTSTLHSGVPSRFSGSGSGTDYSLTISNLEPEDIATYYCQHYSSLPWTFGGGTKLEIK
notes: as for B2
B13: G2.748 rat (antibody, V domains shown)
VH: QVSLKESGPGMLQPSKTLSLTCSFSGFSLSTSGMVVNWIRQPSGKSLEWLAAIDWDGDKYYNPSLKHRLTVSKDTSNTQVVLKITSVDTADTATYYCARSIAPYRGWFGYWGQGTLVTVSS
VL: EIVLIQSPSSLPASLGERVTIICRASQDIGNNLNWYQQKPDGTIKPLIYFTSNFQSGVPSSFSGSRSGTDFSLTISSLEAEDFAMYYCQQDASLPWTFGGGTKLEIK
B14: G2.760 rat (antibody, human IgG1, V domains shown)
VH: EVQLVESGGGLVQPGRSMKLSCAASGFTFSKSDMAWVRQAPTKGLKWVASIRYDGGNTYYRDSVRGRFTISRDNAKSTLYLQMDSLRSEDTATYYCSTAKAAISTPSYYVLDAWGQGASVTVSS
VL: DIGMTQSPTSMSKSVGDRVTMNCKASQNVGSNVDWFQQKTGQSPKLLIYKSSNRYTGVPARFTGSGSGTDFTFTISNMQAEDLAVYYCMQSNSYPPTFGGGTKLELK

What was measured:
human ABCG2 [1] = biological target: T1, human ABCG2; test: flow cytometry titration on 293T_ABCG2_OX cells; column Affinity for human ABCG2 (nM)
Protocol: (§1) Cell Binding Assays. Antibody binding to cells was evaluated by flow cytometry. […] After incubating cells on ice for 30 min, cells were washed twice with flow cytometry buffer. Bound antibody was detected with PE-labeled F(ab′)₂ fragment goat anti-human IgG (Jackson ImmunoResearch) and evaluated on an Attune NxT flow cytometer.

human ABCG2 [2] = biological target: T1, human ABCG2; test: cell-based or functional assay
[3] = biological target: T2, cynomolgus ABCG2 (Macaca fascicularis); test: flow cytometry on cells expressing cynomolgus ABCG2
Protocol: as §1

[4] = biological target: T2, cynomolgus ABCG2 (Macaca fascicularis); test: flow cytometry on cells expressing cynomolgus ABCG2; paragraph 395: non-significant binding = -
Protocol: as §1

[5] = biological target: T2, cynomolgus ABCG2 (Macaca fascicularis); test: flow cytometry, 293T cells overexpressing cynomolgus ABCG2
Protocol: as §1

human ABCG2 [6] = biological target: T1, human ABCG2; test: flow cytometry, 293T cells overexpressing human ABCG2
Protocol: as §1

| Binder | Kd (human ABCG2 [1]) [nM] | IC50 of topotecan cytotoxicity in the presence of the antibody (human ABCG2 [2]) [nM] | binding result [3] | binding result [4] | binding result [5] | binding result (human ABCG2 [6]) |
| --- | --- | --- | --- | --- | --- | --- |
| B1 | 5 | 0.3 | – | – | – | – |
| B2 | 16.8 | 2.21 | binds | – | – | – |
| B3 | 14.2 | 1.42 | – | – | – | – |
| B4 | 17 | 0.45 | binds | – | – | – |
| B5 | 23 | 1.04 | binds | – | – | – |
| B6 | 48 | 9.08 | – | no binding | – | – |
| B7 | – | – | – | – | binds | binds |
| B8 | 44 | – | – | no binding | – | – |
| B9 | 59 | – | – | no binding | – | – |
| B10 | 125 | – | – | no binding | – | – |
| B11 | 347 | – | – | no binding | – | – |
| B12 | 363 | – | – | no binding | – | – |
| B13 | – | – | – | – | binds | binds |
| B14 | – | – | – | – | binds | binds |
